This is an account of results in patent US20240343803A1 (SHANDONG SIMCERE BIOPHARMACEUTICAL, published 2024).

Where two headings read alike, the source gives them in different places.

The target of experiment [1] is T1, human PVRIG (AcroBiosystems, Cat NO. PVG-H52H4) (human, UniProt Q6DKI7 41-171, limits assumed).
T1 construct: Bought protein with His tag; also called human PVRIG-his; human PVRIG protein
T1 sequence (looked up): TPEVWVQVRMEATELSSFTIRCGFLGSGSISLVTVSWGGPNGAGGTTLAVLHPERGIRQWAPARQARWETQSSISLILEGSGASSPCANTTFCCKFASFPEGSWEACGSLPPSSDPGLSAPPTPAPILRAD
Nature of the experiment: ELISA, coated human PVRIG. The method, then: (§1) The ELISA plate was pre-coated with 50 μL/well of 1.0 μg/mL human PVRIG (AcroBiosystems, Cat NO. PVG-H52H4) or 50 μL/well of 0.5 μg/mL cynomolgus monkey PVRIG (Novoprotein, Cat NO. C09B). The tested antibodies were serially diluted (initial concentration 13 nM, 3-fold serial dilution, 12 concentration points), added into the plate (50 μL/well) and incubated at 37° C. for 2.0 hours. After washing the plate, the Goat anti-human IgG Fc-HRP (Merck, Cat NO. AP113P) working solution (dilution ratio 1:5000, 50 μL/well) were added into wells and incubated at 37° C. for 1.0 hour. A HRP substrate, TMB (KPL, Cat NO. 5120-0077) was added into wells after washing the plate again and incubated at 37° C. for 10 minutes for color development. After adding a termination solution to terminate the reaction, the absorbance value was read by a microplate reader (PE, Ensight-HH3400). An antibody binding curve was drawn with molar concentration of antibodies as the abscissa and the corresponding OD value as the ordinate. The EC50 value was calculated by using a Four Parameter Logistic Fit (GraphPadPrism9). The smaller the EC50 value, the stronger the ability of the antibodies binds to human or cynomolgus monkey PVRIG. The positive control antibodies are COM701-hIgG1, PVRIG-A50-H1b and PVRIG-A105-H1; and the negative control antibodies are anti-Fluorescein-hIgG1 (in house). The binding results of the 4 humanized bispecific antibodies to human PVRIG protein are shown in FIG. 41 and Tables 40 and 41, and the binding results to cynomolgus monkey PVRIG are shown in FIG. 42 and Tables 40 and 41. […] The binding of LC-BsAb-002 and LC-BsAb-006 to human PVRIG protein is slightly weaker than that of the corresponding monoclonal antibody (PVRIG-A50-H1b) and the positive control (COM701-hIgG1).

Experiment [2] has as its target T2, human PVRIG-mFc protein (Acro, PVG-H5253) (human, UniProt Q6DKI7 41-171, limits assumed).
T2 construct: extracellular domain; Bought protein; also called PVRIG-ECD-mFc; not shown: mouse Fc tag of the bought protein
T2 sequence (looked up): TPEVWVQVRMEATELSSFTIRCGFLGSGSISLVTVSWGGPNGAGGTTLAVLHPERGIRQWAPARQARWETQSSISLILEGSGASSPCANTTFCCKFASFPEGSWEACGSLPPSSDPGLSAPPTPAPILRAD
The experiment is described as follows: HTRF competition, PVRIG-mFc with Bio-CD112-His as competitor. The method, then: (§2) PVRIG-mFc (ACRO Biosystems, Cat NO. PVG-H5253) and Bio-CD112-His (Sino Biological, Cat NO. 10005-H08H) were diluted to 0.5 μg/mL, respectively. Streptavidin-Tb cryptate (Cisbio) and PAb anti mouse IgG-XL665 (Cisbio) were diluted to 20 μg/mL and 0.8 μg/mL, respectively. The tested antibodies were diluted from the initial concentration of 120 nM, by 3-fold serial dilution for 12 concentration points. The diluted PVRIG-mFc, Bio-CD112-His, Streptavidin-Tb Crytate and PAb anti mouse IgG-XL665 were mixed at 1:1:1:1, and added into a 384-well plate (PE, Cat NO. 6007299), 10 μL/well. 10 μL/well of serially diluted antibodies was added into wells, centrifuged at 1500 rpm for 30s, and incubated at 37° C. for 1 hour. The plate was read on the microplate reader (PE, Envision2105) with wavelengths of 665 nm and 620 nm. […] A Four Parameter Logistic Fit was performed with the molar concentration of the antibodies as the abscissa and Ratio as the ordinate to calculate IC50. The smaller the IC50, the better the effect of the antibody block the binding of PVRIG to PVRL2. The positive controls in this experiment are COM701-hIgG1, PVRIG-A50-H1b and PVRIG-A105-H1; and the negative control antibody is anti-Fluorescein-hIgG1 (in house). The effect of 4 humanized bispecific antibodies blocking the binding of PVRIG to PVRL2 is shown in FIG. 51 and Tables 44 and 45. […] The blocking effect of LC-BsAb-002 is better than its corresponding monoclonal antibody (PVRIG-A50-H1b) and the positive control (COM701-hIgG1). The blocking effect of LC-BsAb-006 is better than its corresponding monoclonal antibody (PVRIG-A50-H1b), but slightly weaker than the positive control (COM701-hIgG1). The blocking effects of LC-BsAb-009 and LC-BsAb-010 are not as good as their corresponding monoclonal antibodies (PVRIG-A105-H1) and the positive control (COM701-hIgG1).

Experiment [3] addresses T2, human PVRIG-mFc protein (Acro, …). The description is as above. The method, then: as §2
The source holds these as a separate data set.

Experiment [4] addresses T3, cynomolgus monkey PVRIG (Novoprotein, Cat NO. C09B) (cynomolgus monkey, UniProt A0A2K5WVV8 41-171).
T3 construct: Bought protein; construct not described; also called cynomolgus monkey PVRIG protein
T3 sequence: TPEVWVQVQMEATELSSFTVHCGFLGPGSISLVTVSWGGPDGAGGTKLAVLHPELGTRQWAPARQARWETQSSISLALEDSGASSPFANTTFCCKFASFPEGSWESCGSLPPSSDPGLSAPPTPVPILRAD
The experiment is described as follows: ELISA, coated cynomolgus PVRIG. The method, then: as §1
(In general: An ELISA detects its analyte on a solid surface through an enzyme-linked reagent.)

The target of experiment [5] is T1, human PVRIG (AcroBiosystems, Cat NO. …). Nature of the experiment: ELISA, coated human PVRIG. The method, then: as §1, with “The smaller the EC50 value, the stronger the ability of the antibodies binds to human or cynomolgus monkey PVRIG.” left out
The source holds these as a separate data set.

Experiment [6] addresses T3, cynomolgus monkey PVRIG (Novoprotein, …). The experiment is described as follows: ELISA, coated cynomolgus PVRIG. The method, then: as §1, with “The smaller the EC50 value, the stronger the ability of the antibodies binds to human or cynomolgus monkey PVRIG.” left out
This is another data set of the same source.

The target in experiment [7] is T2, human PVRIG-mFc protein (Acro, …). The experiment is described as follows: FACS blocking of PVRIG-mFc binding to CHO-K1-CD112 cells; competitor CD112. A digest of the protocol: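 Zombie violet-stained CHO-K1-CD112 cells were added for 30 min at 4° C, then PE goat anti-mouse IgG Fc (1:250) was applied and mean fluorescence intensity read on a BD Canto II. Curves were fitted with four-parameter logistic models in GraphPad Prism 9. IC50 and curve AUC were reported as percentages of the reference antibody values.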

B1: COM701-hIgG1 (antibody, V domains shown)
VH: QVQLVQSGAEVKKPGASVKVSCKASGYTFTDYNINWVRQAPGQGLEWMGYIYPYIGGSGYAQKFQGRVTMTRDTSTSTVYMELSSLRSEDTAVYYCAREDKTARNAMDYWGQGTLVTVSS
VL: DIQMTQSPSSLSASVGDRVTITCRVSENIYSNLAWYQQKPGKAPKLLIYEATNLAEGVPSRFSGSGSGTDFTLTISSLQPEDFATYYCQHFWGTPYTFGQGTKLEIK
notes: Anti-PVRIG positive control
On to B1, for which the “% relative activity COM701-hIgG1/tested antibody” value in experiment [1], in experiment [2], in experiment [3], in experiment [4], in experiment [5] and in experiment [6] was 100% in each case. Also, the “% relative activity PVRIG-A105-H1/tested antibody” value in experiment [1] came to 25.6%; in experiment [2], 93.4%; in experiment [4] it was 66%. The EC50 in experiment [1] stood at 0.248 nM; in experiment [4], 0.0363 nM; in experiment [5], 0.248 nM; in experiment [6], 0.0363 nM. Also, the 50% inhibitory concentration (IC50) in experiment [2] and in experiment [3] was 0.137 nM throughout. Moreover, the “% relative activity PVRIG-A50-H1b/tested antibody” value came out at 150% in experiment [3], 153% in experiment [5] and 105% in experiment [6].

B2: PVRIG-A105-H1 (Fc fusion)
chain: EVQLVESGGGLVQPGGSLRLSCAASGRTFDRHTMSWFRQAPGKEREFVATASRIPGDTYYVDSVKGRFTISRDNAKNSLYLQMNSLRAEDTAVYYCAATSAYCSEVDCYEKGSWYDNWGQGTMVTVSS
notes: VHH-human IgG1 Fc format is stated for the parental VHH antibodies; not restated for the humanized variants; also called A105.VH1; not shown: human IgG1 hinge-CH2-CH3 (Fc)
On to B2, for which, in experiment [1], the “% relative activity COM701-hIgG1/tested antibody” value is 390%, the “% relative activity PVRIG-A105-H1/tested antibody” value was determined as 100% and it took 0.0636 nM to reach a half-maximal effect (EC50). In addition, in experiment [2], the “% relative activity COM701-hIgG1/tested antibody” value stood at 107%, the “% relative activity PVRIG-A105-H1/tested antibody” value was 100% and the IC50 is 0.128 nM. In experiment [4], the “% relative activity COM701-hIgG1/tested antibody” value was 152%, the “% relative activity PVRIG-A105-H1/tested antibody” value came out at 100% and the EC50 was 0.0239 nM. Also, in experiment [7], the “% AUC to COM701-hIgG4” value came out at 111%, the “% AUC to SO35-hIgG1” value is 64.2%, the “% AUC to parental Ab” value was 97.9% and the “% IC50 to COM701-hIgG4” value is 104%. In addition, in experiment [7], the “% IC50 to SO35-hIgG1” value is 88.1% and the “% IC50 to parental Ab” value was 99.7%.

One may read the EC50 as the midpoint of the concentration-response curve. As a reminder, the IC50 is the concentration that gives 50% inhibition.
